Test results published in paper doi:10.1101/2020.05.28.122556.

Experiments:
[1] = molecular target: EED (amino acids 40-441) (human) (UniProt O75530); assay: fluorescence polarisation
[2] = molecular target: 5-carboxyfluorescein (5-FAM, single isomer) labelled JARID2-K116me3 peptide; assay: fluorescence polarisation

EED (amino acids 40-441) (human), sequence (O75530 40-441): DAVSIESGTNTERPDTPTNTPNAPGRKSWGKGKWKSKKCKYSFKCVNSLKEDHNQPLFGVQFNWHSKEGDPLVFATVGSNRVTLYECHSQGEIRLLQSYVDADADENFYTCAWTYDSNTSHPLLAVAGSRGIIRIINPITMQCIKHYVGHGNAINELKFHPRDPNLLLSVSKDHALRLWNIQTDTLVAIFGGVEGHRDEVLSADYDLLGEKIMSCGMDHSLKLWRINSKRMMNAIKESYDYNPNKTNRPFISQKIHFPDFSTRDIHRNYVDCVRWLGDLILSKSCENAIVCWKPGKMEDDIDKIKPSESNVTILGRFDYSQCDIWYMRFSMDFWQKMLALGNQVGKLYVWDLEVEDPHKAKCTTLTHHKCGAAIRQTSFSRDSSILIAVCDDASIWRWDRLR
EED (amino acids 40-441), sequence (O75530 40-441): as above

Row | Substance | Kd [1] | also measured
1 | EED (amino acids 40-441) (from UniProt O75530-1 40-441) (domain or fragment) |  | Kd [2]: 8.07 µM
2 | PALI1-K1214me3 peptide |  | fold lower affinity than PALI1-K1219me3 and PALI1-K1241me3 [1]: 4 fold
3 | H3K27me3 peptide | 41.3 µM | 
4 | PALI1-K1241me1 peptide | 240 µM | 

More lines, main results first:

Row | Kd [1] | Substance | also measured
5 | 8.47 µM | PALI1-K1241me3 peptide | 
6 | 18.8 µM | PALI1-K1241me2 peptide | 
7 | 7.53 µM | PALI1-K1219me3 peptide | 
